Experiments:
Assay in all cases: sandwich ELISA (rabbit anti-L1 capture)
[1] = target: T1, HPV11L1 (human papillomavirus type 11, UniProt P04012 1-501)
T1 sequence: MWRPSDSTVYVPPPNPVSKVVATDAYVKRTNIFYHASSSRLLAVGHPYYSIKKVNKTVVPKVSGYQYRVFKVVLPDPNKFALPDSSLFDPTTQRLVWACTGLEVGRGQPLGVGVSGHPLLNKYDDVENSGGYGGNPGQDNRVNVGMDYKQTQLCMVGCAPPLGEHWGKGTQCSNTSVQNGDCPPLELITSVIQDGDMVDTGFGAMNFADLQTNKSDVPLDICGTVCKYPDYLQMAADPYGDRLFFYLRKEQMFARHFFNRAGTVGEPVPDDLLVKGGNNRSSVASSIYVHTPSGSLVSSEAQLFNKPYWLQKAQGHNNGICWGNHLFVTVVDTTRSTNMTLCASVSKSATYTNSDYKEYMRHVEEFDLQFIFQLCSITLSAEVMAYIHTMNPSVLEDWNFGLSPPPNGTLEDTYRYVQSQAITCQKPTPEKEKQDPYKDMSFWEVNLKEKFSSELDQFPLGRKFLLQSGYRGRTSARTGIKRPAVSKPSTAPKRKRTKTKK

[2] = target: T2, HPV16L1 (human papillomavirus type 16, UniProt P03101 1-505)
T2 sequence: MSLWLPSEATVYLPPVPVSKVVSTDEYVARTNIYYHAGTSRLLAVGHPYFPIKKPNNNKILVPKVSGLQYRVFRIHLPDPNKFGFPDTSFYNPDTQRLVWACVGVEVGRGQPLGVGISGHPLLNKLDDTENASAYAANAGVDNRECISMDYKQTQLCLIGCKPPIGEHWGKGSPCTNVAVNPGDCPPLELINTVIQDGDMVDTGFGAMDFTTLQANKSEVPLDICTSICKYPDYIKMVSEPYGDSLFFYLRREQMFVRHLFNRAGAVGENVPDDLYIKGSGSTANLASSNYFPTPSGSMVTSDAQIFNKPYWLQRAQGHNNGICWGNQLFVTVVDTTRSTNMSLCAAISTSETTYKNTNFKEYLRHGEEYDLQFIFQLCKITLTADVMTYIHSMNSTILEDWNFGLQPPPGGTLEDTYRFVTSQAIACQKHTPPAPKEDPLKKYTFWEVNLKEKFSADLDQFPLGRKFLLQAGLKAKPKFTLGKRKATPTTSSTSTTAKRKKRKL

[3] = target: T3, HPV31L1 (human papillomavirus type 31, UniProt P17388 1-504)
T3 sequence: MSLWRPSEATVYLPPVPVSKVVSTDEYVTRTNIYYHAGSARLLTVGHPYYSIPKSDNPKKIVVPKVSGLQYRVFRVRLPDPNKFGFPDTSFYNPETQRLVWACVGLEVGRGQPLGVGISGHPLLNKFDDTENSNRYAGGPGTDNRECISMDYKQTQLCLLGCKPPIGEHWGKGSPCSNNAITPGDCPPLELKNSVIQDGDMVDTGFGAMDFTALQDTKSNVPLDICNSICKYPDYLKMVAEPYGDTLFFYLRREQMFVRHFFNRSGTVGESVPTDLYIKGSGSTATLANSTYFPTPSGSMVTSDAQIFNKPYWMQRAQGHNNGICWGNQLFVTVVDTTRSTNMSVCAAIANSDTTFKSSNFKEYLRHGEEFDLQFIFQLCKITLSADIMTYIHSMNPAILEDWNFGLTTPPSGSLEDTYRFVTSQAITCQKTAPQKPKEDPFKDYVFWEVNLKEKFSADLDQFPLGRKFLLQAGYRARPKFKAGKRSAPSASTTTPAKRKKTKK

[4] = target: T4, HPV52L1 (human papillomavirus type 52, UniProt Q05138 27-529)
T4 sequence: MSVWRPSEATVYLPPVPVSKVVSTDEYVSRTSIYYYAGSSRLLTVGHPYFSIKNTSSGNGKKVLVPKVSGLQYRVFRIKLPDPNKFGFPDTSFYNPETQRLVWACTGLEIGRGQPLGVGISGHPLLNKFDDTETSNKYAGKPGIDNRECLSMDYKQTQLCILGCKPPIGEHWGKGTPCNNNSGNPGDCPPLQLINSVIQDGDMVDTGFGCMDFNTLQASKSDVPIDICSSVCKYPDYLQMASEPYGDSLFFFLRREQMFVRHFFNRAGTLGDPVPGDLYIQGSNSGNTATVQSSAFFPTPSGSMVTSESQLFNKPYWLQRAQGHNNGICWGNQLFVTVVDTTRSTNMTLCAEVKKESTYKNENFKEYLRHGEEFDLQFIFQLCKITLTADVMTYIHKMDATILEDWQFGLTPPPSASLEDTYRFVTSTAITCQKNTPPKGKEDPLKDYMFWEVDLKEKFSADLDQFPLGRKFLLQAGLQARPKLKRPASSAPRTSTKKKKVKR

[5] = target: T5, HPV35L1 (human papillomavirus type 35, UniProt P27232 1-502)
T5 sequence: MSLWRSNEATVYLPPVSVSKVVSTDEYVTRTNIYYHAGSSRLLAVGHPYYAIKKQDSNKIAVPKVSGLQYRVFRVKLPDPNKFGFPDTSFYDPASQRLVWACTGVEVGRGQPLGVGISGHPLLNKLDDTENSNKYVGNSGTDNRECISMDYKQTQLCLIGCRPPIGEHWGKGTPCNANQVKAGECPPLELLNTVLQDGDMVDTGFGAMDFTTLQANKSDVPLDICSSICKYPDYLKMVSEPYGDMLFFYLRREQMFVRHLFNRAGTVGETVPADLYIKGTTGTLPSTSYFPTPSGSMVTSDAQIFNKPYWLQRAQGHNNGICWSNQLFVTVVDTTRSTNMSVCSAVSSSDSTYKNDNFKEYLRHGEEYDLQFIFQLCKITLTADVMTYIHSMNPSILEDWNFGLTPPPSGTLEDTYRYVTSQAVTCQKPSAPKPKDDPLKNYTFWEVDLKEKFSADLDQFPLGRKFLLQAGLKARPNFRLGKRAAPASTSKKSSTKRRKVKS

B1: HPV 59编号为30单克隆抗体 (antibody, V domains shown)
VH: QIQLVQSGPELKKPGETVKISCKASGYTFTDYSMHWVKQAPGKGLKWMGWINTETGEPTYADDFKGRFAFSLETSASTAYLQINNLKIEDTATYFCTRDGYVWYFDVWGAGTTVTVSS
VL: QIVLSQSPAILSASPGEKVTMTCRASSSVNYMHWYQQKPGSSPKPWIYATSNLASGVPARFSGSGSGTSYSLTISRVEAEDAATYYCQQWSSNPIFTFGSGTKLEIK
notes: Mouse hybridoma antibody tested as cell supernatant; also called 59H30
- binding result [1]: no binding (tested: 原液40μg/ml; 细胞上清1:100)
- binding result [2]: no binding (tested: 原液40μg/ml; 细胞上清1:100)
- binding result [3]: no binding (tested: 原液40μg/ml; 细胞上清1:100)
- binding result [4]: no binding (tested: 原液40μg/ml; 细胞上清1:100)
- binding result [5]: no binding (tested: 原液40μg/ml; 细胞上清1:100)

From patent CN117736312A (SHANGHAI BOVAX BIOLOGICAL SCIENCE & TECH CO LTD, dated 2024)
